Data reported in patent publication US20120294865A1 (REGENTS OF THE UNIVERSITY OF MICHIGAN, published 2012).

How the values were obtained:
[1] = biological target: T1, peptide of SEQ ID NO: 32 (YANNPRVVFNLNTYK) (human); assay: peptide microarray, fluorescent secondary antibody
T1 construct: 15-mer on a peptide microarray (ProImmune)
T1 peptide: YANNPRVVFNLNTYK
Experimental: (§1) Epitope mapping was performed by incubating monoclonal antibody (mAb) samples with a peptide microarray, followed by incubation with a fluorescent-labelled secondary antibody. After washing, the microarray was scanned in a high-resolution scanning system. The peptide microarray consisted of a set of 15-mer peptides overlapping by 10 residues taken from the human alpha-2 integrin subunit (Genbank accession number AAM34795.1; amino acid residues 1-1133 were used). Peptide arrays, antibody incubations, scanning and data analysis were generated by ProImmune Inc, 4281 Express Lane, Suite L2378, Sarasota, Fla. 34238.

[2] = biological target: T2, peptide of SEQ ID NO: 33 (AIASIPTERYFFNVS) (human); assay: peptide microarray, fluorescent secondary antibody
T2 construct: 15-mer on a peptide microarray (ProImmune)
T2 peptide: AIASIPTERYFFNVS
Experimental: as §1

| Binder | binding result [1] | binding result [2] |
| --- | --- | --- |
| Ab 778.17 (antibody, V domains shown, Mouse monoclonal antibody from a hybridoma) VH: QVQLQQPGAELVRPGTSVKLSCKASGYTFASYWMNWVSQRPEQGLEWIGRIDPYDSETHYNQKFKDKAILTVDKSSSTAYIQLNSLTSEDSAVYYCARLGRGPFAYWGQGTLVTVSA VL: DIVMTQTPTSLAVSLGQRATISCRASESVDSYDNSFMYWYQQKPGQPPKLLIYFASNLESGVPARFSGSGSRTDFTLTIDPVEADDAATYYCQQNNEDPYTFGGGTKLEIKR | binds | binds |
| Ab 770.8 (antibody, V domains shown, Mouse monoclonal antibody from a hybridoma, used as ascites or purified) VH: EVKLEESGTVLARPGASVKMSCKASGYSFTSYWMHWVKQRPGQGLEWIGAFYPGNSEDKYNENFKIKAKLTAVTSVNTVYMELSSLTSEDSAVYYCTRGTTLVAPGFDVWGAGTTVTVSS VL: DIVMTQSPAILSVSPGERVSFSCRASQSIGTSIHWYQQRTNGSPRLLIKYVSESISGIPSRFSGSGSGTDFTLTINSVESEDIADYYCQHSNRWPLTFGAGTKLELKR | binds | binds |
